Test results: paper PMC8418782 (Molecular cell, 2021)

Legend:
human Hsp90α [1] = target: T1, human Hsp90α (human, UniProt P07900 1-732); assay: SEC-MALS
human Hsp90α [2] = target: T1, human Hsp90α; assay: SEC-MALS; remark: listed apart in the source

Row | stoichiometry N (human Hsp90α [1]) | binding result (human Hsp90α [2]) | Binder
1 | ~0.5 p23 per Hsp90 chain (Hsp90:FKBP51:p23 2:1:1) |  | human p23 (natural protein) MQPASAKWYDRRDYVFIEFCVEDSKDVNVNFEKSKLTFSCLGGSDNFKHLNEIDLFHCIDPNDSKHKRTDRSILCCLRKGESGQSWPRLTKERAKLNWLSVDFNNWKDWEDDSDEDMSNFDRFSEMMNNMGGDEDVDLPEVDGADDDSQDSDDEKMPDLE
2 |  | binds | FKBP51 ΔH7e (Δ401–457) (domain or fragment, human, UniProt Q13451 1-400, looked up) MTTDEGAKNNEESPTATVAEQGEDITSKKDRGVLKIVKRVGNGEETPMIGDKVYVHYKGKLSNGKKFDSSHDRNEPFVFSLGKGQVIKAWDIGVATMKKGEICHLLCKPEYAYGSAGSLPKIPSNATLFFEIELLDFKGEDLFEDGGIIRRTKRKGEGYSNPNEGATVEIHLEGRCGGRMFDCRDVAFTVGEGEDHDIPIGIDKALEKMQREEQCILYLGPRYGFGEAGKPKFGIEPNAELIYEVTLKSFEKAKESWEMDTKEKLEQAAIVKEKGTVYFKGGKYMQAVIQYGKIVSWLEMEYGLSEKESKASESFLLAAFLNLAMCYLKLREYTKAVECCDKALGLDSANEKGLYRRGEAQLLMNEFESAKGDFEKVLEVNPQNKAARLQISMCQKKAKE
3 |  | binds | FKBP51 N402K (natural protein, human, UniProt Q13451 1-457, looked up) MTTDEGAKNNEESPTATVAEQGEDITSKKDRGVLKIVKRVGNGEETPMIGDKVYVHYKGKLSNGKKFDSSHDRNEPFVFSLGKGQVIKAWDIGVATMKKGEICHLLCKPEYAYGSAGSLPKIPSNATLFFEIELLDFKGEDLFEDGGIIRRTKRKGEGYSNPNEGATVEIHLEGRCGGRMFDCRDVAFTVGEGEDHDIPIGIDKALEKMQREEQCILYLGPRYGFGEAGKPKFGIEPNAELIYEVTLKSFEKAKESWEMDTKEKLEQAAIVKEKGTVYFKGGKYMQAVIQYGKIVSWLEMEYGLSEKESKASESFLLAAFLNLAMCYLKLREYTKAVECCDKALGLDSANEKGLYRRGEAQLLMNEFESAKGDFEKVLEVNPQNKAARLQISMCQKKAKEHKERDRRIYANMFKKFAEQDAKEEANKAMGKKTSEGVTNEKGTDSQAMEEEKPEGHV
